Here are results for four molecules from patent US20250340646A1 (ELPIS BIOPHARMACEUTICALS, published 2025).

Assay [1] addresses T1, full-length human PD-L1 on K562 cells (human, UniProt Q9NZQ7 19-290).
T1 construct: also called PD-L1/K562; cell surface human PD-L1
The assay can be described thus: FACS, PD-L1/K562 cells. The procedure: Cells were spun down at 1200 rpm for 5 minutes at 4° C. to remove primary antibodies. Cells were then washed once with 200 μL of full medium per well. […] Samples were spun down at 1200 rpm for 5 minutes at 4° C. and washed twice with 200 μL of 1×PBS per well. Samples were reconstituted in 200 μL of 1×PBS and were read on Attune NxT cytometer.
(§1) The production, the binding, and all of the characterization assays for selected affinity matured scFv clones were performed as described above.

For assay [2], the target named is T2, human PD-L1-Fc (human, UniProt Q9NZQ7 19-238).
T2 construct: also called recombinant PD-L1-Fc fusion protein
Briefly: ELISA, coated PD-L1-Fc, anti-FLAG HRP. As for the experimental part:
The plate was incubated overnight at 4° C. followed by blocking with 80 μL of superblock per well for 1 hour. […] In between each step, the plate was washed 3 times with 1×PBST in a plate washer. The plate was then developed with 20 μL of TMB substrate for 5 min and stopped by adding 20 μL of 2N sulfuric acid. The plate was read at OD450 nm Biotek plate reader and then plotted in Prism 8.1 software.
as §1

For assay [3], the target named is T2, human PD-L1-Fc. Briefly: SPR, PD-L1-Fc captured, scFv analyte. The procedure: The assay was run with Biacore T200 control software version 2.0. Anti-human Fc antibody was immobilized on flow cell 1 and 2 of CM5 sensor chip. […] The flow cells were then regenerated with antibody regeneration buffer (GE Healthcare) for 30 seconds at flow rate of 30 μl/min.
as §1

Assay [4] addresses T2, human PD-L1-Fc. Briefly: SPR, PD-L1-Fc captured, scFv analyte; exponent sign missing in print, value set to E-03 from the same row's KD x kon.
In assay [5] the target is PD-L1 on PD-L1 aAPC/CHOK1 cells (Promega J1250). Briefly: cell-based or functional assay.
Assay [6] deals with T3, PD-L1 biotinylated (PD-1/PD-L1 TR-FRET assay kit, BPS 72038) (Homo sapiens (Human), UniProt Q9NZQ7 19-238, biotinylated; site not stated).
T3 construct: Kit reagent
Briefly: HTRF PD-1/PD-L1 competition (PD-1-Eu and biotinylated PD-L1), % activity; blocked ligand PD-1-Eu. The procedure: (§2) Briefly, 1× Immuno buffer 1 was made. […] For each well in 384-well plate, serial diluted scFvs and regents were added according to manufacturer's recommended volume. Samples were incubated at room temperature for 1.5 hours then the fluorescent intensity was read with Biotek Neo2 plate reader using manufacture's instrument setting for the assay.
as §1
In general terms: Time-resolved FRET reads energy transfer from a long-lived donor to a nearby acceptor.

In assay [7] the target is T4, recombinant His-tagged human IL-2Rβ (human, UniProt P14784 27-240, limits assumed).
T4 construct: also called IL-2Rβ-HIS; IL-15Rβ-HIS
T4 sequence (looked up): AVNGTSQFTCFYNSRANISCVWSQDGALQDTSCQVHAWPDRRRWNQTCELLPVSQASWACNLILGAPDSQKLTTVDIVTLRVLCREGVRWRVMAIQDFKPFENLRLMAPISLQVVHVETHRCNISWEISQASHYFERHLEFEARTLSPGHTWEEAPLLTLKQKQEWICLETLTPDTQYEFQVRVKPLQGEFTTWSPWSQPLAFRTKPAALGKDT
Briefly: SPR, Protein A capture, IL-2Rβ-HIS analyte. As for the experimental part: (§3) The assay was run with Biacore T200 control software version 2.0. For each cycle, 1 μg/mL of anti-hPD-L1/IL-2 was captured for 60 seconds at flow rate of 10 μL/min on flow cell 2 in 1×HBSP buffer on Protein A sensor chip. […] The flow cells were then regenerated with Glycine pH2 for 60 seconds at flow rate of 30 μL/min. […] The specific binding response unit was derived from subtraction of binding to reference flow cell 1 from antibody captured flow cell 2.

In assay [8] the target is T4, recombinant His-tagged human IL-2Rβ. The assay can be described thus: ELISA, coated His-tagged IL-2Rβ. As for the experimental part: For monovalent IL-2 Fc-fusion proteins, recombinant His-tagged human IL-2Rα and IL-2Rβ were added in 25 μL of 1×PBS to wells of 384-well plate and incubated overnight at 4° C. to coat the plates. Plates were washed three times with 0.05% Tween20/1×PBS. Plates were blocked with 100 μL of SuperBlock for 1 hr at RT and then washed 3 times with 0.05% Tween20/1×PBS. IL-2 mutants were diluted in 0.05% Tween 20/1×PBS from 1000 nM to 0 nM and added to plates for 2 hrs at room temperature. Plates were then washed 6 times with 0.05% Tween20/1×PBS. Anti-HisTag-HRP was diluted 1:5000 in 0.05% Tween20/1×PBS and added to plates for 1 hr at RT. Plates were then washed 6 times with 0.05% Tween 20/1×PBS, and TMB was added to develop blue color. Reactions were stopped with 2N […] and light absorbance at 450 nm was read on a BioTek plate reader. Absorbance versus IL-2 concentration is graphed for human IL-2Rα and IL-2Rβ. […]
In general terms: In an ELISA, binding on a coated surface is turned into a signal by an enzyme label.

Assay [9] addresses T5, recombinant His-tagged human IL-2Rα (human, UniProt P01589 22-213, limits assumed).
T5 construct: also called IL-2Rα-HIS; CD25
T5 sequence (looked up): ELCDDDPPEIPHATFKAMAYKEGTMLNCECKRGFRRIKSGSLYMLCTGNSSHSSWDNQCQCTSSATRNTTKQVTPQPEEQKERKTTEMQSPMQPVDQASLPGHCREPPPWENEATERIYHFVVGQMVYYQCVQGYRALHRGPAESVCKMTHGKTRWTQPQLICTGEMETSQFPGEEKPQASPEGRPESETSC
Briefly: ELISA, coated His-tagged human IL-2Rα, OD 450 nm. As for the experimental part: For monovalent IL-2 Fc-fusion proteins, recombinant His-tagged human IL-2Rα and IL-2Rβ were added in 25 μL of 1×PBS to wells of 384-well plate and incubated overnight at 4° C. to coat the plates. Plates were washed three times with 0.05% Tween20/1×PBS. Plates were blocked with 100 μL of SuperBlock for 1 hr at RT and then washed 3 times with 0.05% Tween20/1×PBS. IL-2 mutants were diluted in 0.05% Tween 20/1×PBS from 1000 nM to 0 nM and added to plates for 2 hrs at room temperature. Plates were then washed 6 times with 0.05% Tween20/1×PBS. Anti-HisTag-HRP was diluted 1:5000 in 0.05% Tween20/1×PBS and added to plates for 1 hr at RT. Plates were then washed 6 times with 0.05% Tween 20/1×PBS, and TMB was added to develop blue color. Reactions were stopped with 2N […] and light absorbance at 450 nm was read on a BioTek plate reader. Absorbance versus IL-2 concentration is graphed for human IL-2Rα and IL-2Rβ.
A 384 well plate was immobilized with anti-human Fc at final concentration of 2 μg/mL in 1×PBS in total volume of 25 μL per well. The plate was incubated overnight at 4C followed by blocking with 80 μL of superblock per well for 1 hour. […] In between each step, the plate was washed 3 times with 1×PBST in a plate washer. […] The plate was read at OD450 nm Biotek plate reader and the binding correlation was plotted with Prism 8.1 software. […]

Assay [10] concerns the target biotinylated PD-L1 (Homo sapiens (Human), UniProt Q9NZQ7 19-238, biotinylated; site not stated). The assay can be described thus: ELISA, anti-human Fc capture, biotinylated PD-L1. As for the experimental part: A 384 well plate was immobilized with anti-human Fc at final concentration of 2 μg/mL in 1×PBS in total volume of 25 μL per well. The plate was incubated overnight at 4C followed by blocking with 80 μL of superblock per well for 1 hour. […] In between each step, the plate was washed 3 times with 1×PBST in a plate washer. The plate was then developed with 25 μL of TMB substrate for 5 min and stopped by adding 25 μL of 2N sulfuric acid. The plate was read at OD450 nm Biotek plate reader and the binding correlation was plotted with Prism 8.1 software. The ELISA binding assays of the antibodies to IL-2Rα and IL-2Rβ receptors were performed as described in Example 6.

Assay [11] has as its target T6, human PD-L1-HIS tagged recombinant protein (human, UniProt Q9NZQ7 19-238).
T6 construct: also called hPD-L1-HIS; PD-L1 HIS tagged protein
Briefly: SPR, Protein A capture, PD-L1-HIS analyte. The procedure: as §3
On the technique in general: Surface plasmon resonance follows binding to a sensor surface in real time, without labels.

The target in assay [12] is PD-L1 on PD-L1 aAPC/CHOK1 cells (Promega J1250). The assay can be described thus: cell-based or functional assay. The source holds these as a separate data set.
The target in assay [13] is T4, recombinant His-tagged human IL-2Rβ. Briefly: SPR, Protein A capture, IL-2Rβ-HIS analyte, steady state affinity. The procedure:
as §3

The target of assay [14] is T3, PD-L1 biotinylated (PD-1/PD-L1 TR-FRET …). Briefly: HTRF competition, competitor PD-1-Eu. The procedure: as §2

B1: 2019EP69-C05 scFv (scFv, V domains shown)
VH: QVQLVQSGAEVKKPGSSVKVSCKASGGTFSSYAISWVRQAPGQGLEWMGGIIPIFGTANYAQKFQGRVTITADESTSTAYMELSSLRSEDTAVYYCARDKGYGSGFRGDYWGQGTLVTVSS
VL: QSVLTQPPSASGTPGQRVTISCSGSYSNIGSNFVNWYQQLPGTAPKLLIHFNNQRPSGVPDRFSGSRSGTSASLAISGLQSEDEADYFCSTWDDSLKGPIFGGGTKLTVL
A word on the EC50: it is the concentration needed to bring the measured effect to its halfway point. One may read the Kd as a measure of binding affinity in units of concentration. As usually defined, the kon is a measure of how fast the partners come together. As usually defined, the koff is the rate constant with which the complex falls apart. Turning to B1, the values for the concentration for a half-maximal effect (EC50) in [1] and in assay [2] were 0.221 nM and 0.507 nM, respectively. The molecule also showed a dissociation constant (Kd) in assay [3] of 2.58 nM. Besides, the kon in assay [3] turned out to be 1.76e+06 M⁻¹ s⁻¹. The molecule also returned an off-rate (koff) in assay [4] of 0.00454 s⁻¹.

B2: 2019EP69-F03 scFv (scFv, not shown: small tags and cut ends)
scFv: QVQLVQSGAEVKKPGSSVKVSCKASGGTFSSYAISWVRQAPGQGLEWMGGIIPIFGTANYAQKFQGRVTITADESTSTAYMELSSLRSEDTAVYYCARDKWYGSAWRGDYWGQGTLVTVSSGGGGSGGGGSGGGGSQSVLTQPPSASGTPGQRVTISCSGSYSNIGSNFVNWYQQLPGTAPKLLIHFNNQRPSGVPDRFSGSRSGTSASLAISGLQSEDEADYFCSTWDDSLKGPIFGGGTKLTVL
As for B2, the half-maximal effective concentration (EC50) in assay [1] came out at 0.115 nM. Further, a half-maximal response in assay [2] (EC50) required 0.696 nM. Further, the “Jurkat NFAT reporter assay EC50” value in [5] was determined as 123 nM. In assay [3], this molecule came in with an equilibrium dissociation constant (Kd) of 0.0797 nM, an off-rate (koff) of 9.87e-05 s⁻¹ and an association rate constant (kon) of 1.24e+06 M⁻¹ s⁻¹. In addition, in assay [6], the “IC50 (read off the curve)” value is about 100 nM.

B3: IL-2/anti-PD-L1 scFv Fc EP413/EP326 (bispecific antibody)
chain 1: not shown
chain 2: QVQLVQSGAEVKKPGSSVKVSCKASGGTFSSYAISWVRQAPGQGLEWMGGIIPIFGTANYAQKFQGRVTITADESTSTAYMELSSLRSEDTAVYYCARDKWYGSAWRGDYWGQGTLVTVSSGGGGSGGGGSGGGGSQSVLTQPPSASGTPGQRVTISCSGSYSNIGSNFVNWYQQLPGTAPKLLIHFNNQRPSGVPDRFSGSRSGTSASLAISGLQSEDEADYFCSTWDDSLKGPIFGGGTKLTVLDKTHTCPPCPAPEAAGGPSVFLFPPKPKDTLMISRTPEVTCVVVDVSHEDPEVKFNWYVDGVEVHNAKTKPREEQYNSTYRVVSVLTVLHQDWLNGKEYKCKVSNKALGAPIEKTISKAKGQPREPQVCTLPPSRDELTKNQVSLSCAVKGFYPSDIAVEWESNGQPENNYKTTPPVLDSDGSFKLVSKLTVDKSRWQQGNVFSCSVMHEALHNHYTQKSLSLSPGK
notes: IL2 EP001 carrying K35L/R38D/F42R
On to B3, for which the Kd turned out to be 6.5 nM in [7] and 0.507 nM in assay [11]. The koff was found to be 0.0107 s⁻¹ in [7] and 0.000247 s⁻¹ in assay [11]. For the same molecule, the kon in assay [7] came to 1.65e+06 M⁻¹ s⁻¹; in assay [11], 487000 M⁻¹ s⁻¹. The EC50 in assay [8] is 0.545 nM; in assay [10], 0.345 nM. In addition, the binding result in [9] was “no binding (tested: LOG(IL-2(nM)) 2 (100 nM))”.

B4: IL-2/anti-PD-L1 scFv Fc EP418/EP326 (bispecific antibody)
chain 1: not shown
chain 2: B3 chain 2
notes: IL2 EP340
The IC50 is the point on the concentration scale where inhibition reaches its midpoint. Low values mean greater potency, high ones weaker potency. B4: in [12], the “NFAT reporter EC50” value came out at 9.07 nM. For the same molecule, the Kd is 75.8 nM in assay [13] and 0.547 nM in assay [11]. The molecule further returned an IC50 in assay [14] of 346 nM. The same molecule returned a concentration giving a half-maximal response (EC50) in [10] of 0.287 nM.
